Target: CD33 (UniProt P20138 18-364, limits assumed)
Experiment: cell-based or functional assay

CD33, sequence (P20138 18-364 limits assumed): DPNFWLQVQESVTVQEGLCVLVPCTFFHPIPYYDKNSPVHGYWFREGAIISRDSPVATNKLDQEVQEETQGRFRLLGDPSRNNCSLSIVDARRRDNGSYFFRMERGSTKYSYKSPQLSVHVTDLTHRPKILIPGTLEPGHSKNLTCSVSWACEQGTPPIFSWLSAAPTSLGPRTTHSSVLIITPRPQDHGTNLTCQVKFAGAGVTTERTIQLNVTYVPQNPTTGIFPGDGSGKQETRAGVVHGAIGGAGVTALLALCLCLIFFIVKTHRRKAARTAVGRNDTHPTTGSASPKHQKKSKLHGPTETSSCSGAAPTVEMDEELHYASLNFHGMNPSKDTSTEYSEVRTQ

CD4+及びCD8+T細胞増殖: > 2 fold
B1: AMV564 (bispecific antibody)
chain: DIQMTQSPSSLSASVGDRVTITCRSSTGAVTTSNYANWVQQKPGKAPKALIGGTNKRAPGVPSRFSGSLIGDKATLTISSLQPEDFATYYCALWYSNLWVFGQGTKVEIKGGSGGSQVQLVQSGAEVKKPGASVKVSCKASGYTFTSYDINWVRQAPGQGLEWMGWMNPNSGNTGFAQKFQGRVTMTRDTSTSTVYMELSSLRSEDTAVYYCARDRANTDYSLGMDVWGQGTLVTVSSGGSGQSVLTQPPSASGTPGQRVTISCSGSRSNIGSNTVNWYQQLPGTAPKLLIYGNNQRPSGVPDRFSGSKSGTSASLAISGLQSEDEADYYCATWDDSLIGWVFGGGTKLTVLGGSGGSEVQLVESGGGLVQPGGSLRLSCAASGFTFSTYAMNWVRQAPGKGLEWVGRIRSKYNNYATYYADSVKDRFTISRDDSKNSLYLQMNSLKTEDTAVYYCARHGNFGNSYVSYFAYWGQGTLVTVSS

Source: patent publication JP2024513915A (dated 2024)
